Test results from article PMC11035697, “Phosphorylation of the F-BAR protein Hof1 drives septin ring splitting in budding yeast” (Nature Communications, 2024).
Values belong to the binder of their own block, whether it stands above or below them.

How the values were obtained:
[1] = target: T1, eGFP-tagged Cdc11-capped septin octamer (S. cerevisiae, UniProt P32458 1-415; P32468 1-407; P32457 1-520; P25342 1-322); test: fluorescence microscopy of purified proteins (colocalisation on septin bundles); 1:1 mix of eGFP-tagged and untagged septin octamers (50 nM) on PI(4,5)P2-containing supported lipid bilayers in 20 mM Tris-Cl pH 8, 30 mM NaCl, 2 mM MgCl2, GTP; Hof1-BFP mixed 1:4 with untagged Hof1 added; spinning disk microscopy; details: both partners purified
T1 construct: septin Cdc11, yeast; septin Cdc12, yeast; septin Cdc3, yeast; septin Cdc10, yeast; Always used as a 1:1 mix with the untagged octamer in the fluorescence experiments; also called eGFP-labelled septin octamers; GFP-tagged septin octamers; source: E. coli BL21 (DE3) Rosetta, co-expressed from pFM453 and pFM873, purified (amylose, thrombin cleavage of MBP, Ni-NTA); not shown: MBP, N-terminal, …

[2] = target: the molecule itself; test: negative-stain transmission electron microscopy; septin octamers diluted in low salt buffer (20 mM Tris-Cl pH 8, 30 mM NaCl, 2 mM MgCl2, 40 µM GTP), polymerised at least 30 min at 4 °C, 180 nM final; 1% uranyl acetate; octamers to filaments

binding result [1]: binds
B1: MBP-Hof1-BFP-6His (natural protein, S. cerevisiae, UniProt Q05080 1-669, looked up)
chain: MSYSYEACFWDPNDNGVNILLGHISQGIRSCDSMILFFKQRSELEKDYARRLGAITGKLDKDIGTNMDYGKLNETFNVVLSVEKARAQSHSKQSEILFRQIYTDTKAFAANLQARYTTLSGKIERLRMDKFNKKKGCEVLQKKLQDAQIRFRDLQLNENNMIGAKRVEHNKRELLKWESNSQEYKVQLDVLKQEYKASQKFWIHEWAQLSCELQEMENARISFLQSKLQQFATSSMETYILEQTKMDMLTNHLNSFTAADEISTFSKENGTGRLKHKTSKGDMNSSANWAQMSSISTTSKKTESYMDNIRKLSSQLKETENKRKLASIDKYEKPLPSPEVTMATQFRNSTPVIRNETKVVANPTLSLRSSPVQLQSNVDDSVLRQKPDKPRPIVGEEQLKPDEDSKNPDEKGLMVHKRNQSLSSPSESSSSNPTDFSHIKKRQSMESMTTSVSSMANSIDDSQRFAKSWNSSNRKRKSMSHLQVPSSASSRSDDGGRTPNSAHNLNEDDYNTRRDTSTSTILFKPPVAVRGTSRGHTHRQSMIMQDSSNPIEDALYEMERIQSSSKPGTKTGNIMDERGVVRDRGITVTLPIVTSEGFPVIEYAKAMYPLIGNEAPGLANFHKGDYLLITEIVNKDWYKGEVYDNDRIDRNHRIGLIPYNFIQLLHQGL
notes: F-BAR protein Hof1, S. cerevisiae, residues 1-669 (mTagBFP fragment cloned into pBG2163); BFP amplified from pHPOM1-mTagBFP2; also called Hof1 tagged with blue fluorescent protein; pSP1950; source: E. coli BL21 (DE3) Rosetta, purified (Ni-NTA, amylose); not shown: MBP, N-terminal, kept; mTagBFP, C-terminal, kept

B2: Cdc11-Cdc12-Cdc3-Cdc10-Cdc10-Cdc3-Cdc12-Cdc11 septin octamer (complex, S. cerevisiae)
chain 1: MSGIIDASSALRKRKHLKRGITFTVMIVGQSGSGRSTFINTLCGQQVVDTSTTILLPTDTSTEIDLQLREETVELEDDEGVKIQLNIIDTPGFGDSLDNSPSFEIISDYIRHQYDEILLEESRVRRNPRFKDGRVHCCLYLINPTGHGLKEIDVEFIRQLGSLVNIIPVISKSDSLTRDELKLNKKLIMEDIDRWNLPIYNFPFDEDEISDEDYETNMYLRTLLPFAIIGSNEVYEMGGDVGTIRGRKYPWGILDVEDSSISDFVILRNALLISHLHDLKNYTHEILYERYRTEALSGESVAAESIRPNLTKLNGSSSSSTTTRRNTNPFKQSNNINNDVLNPASDMHGQSTGENNETYMTREEQIRLEEERLKAFEERVQQELLLKRQELLQREKELREIEARLEKEAKIKQEE
chain 2: MSAATATAAPVPPPVGISNLPNQRYKIVNEEGGTFTVMLCGESGLGKTTFINTLFQTVLKRADGQQHRQEPIRKTVEIDITRALLEEKHFELRVNVIDTPGFGDNVNNNKAWQPLVDFIDDQHDSYMRQEQQPYRTKKFDLRVHAVLYFIRPTGHGLKPIDIETMKRLSTRANLIPVIAKADTLTAQELQQFKSRIRQVIEAQEIRIFTPPLDADSKEDAKSGSNPDSAAVEHARQLIEAMPFAIVGSEKKFDNGQGTQVVARKYPWGLVEIENDSHCDFRKLRALLLRTYLLDLISTTQEMHYETYRRLRLEGHENTGEGNEDFTLPAIAPARKLSHNPRYKEEENALKKYFTDQVKAEEQRFRQWEQNIVNERIRLNGDLEEIQGKVKKLEEQVKSLQVKKSHLK
chain 3: MSLKEEQVSIKQDPEQEERQHDQFNDVQIKQESQDHDGVDSQYTNGTQNDDSERFEAAESDVKVEPGLGMGITSSQSEKGQVLPDQPEIKFIRRQINGYVGFANLPKQWHRRSIKNGFSFNLLCVGPDGIGKTTLMKTLFNNDDIEANLVKDYEEELANDQEEEEGQGEGHENQSQEQRHKVKIKSYESVIEENGVKLNLNVIDTEGFGDFLNNDQKSWDPIIKEIDSRFDQYLDAENKINRHSINDKRIHACLYFIEPTGHYLKPLDLKFMQSVYEKCNLIPVIAKSDILTDEEILSFKKTIMNQLIQSNIELFKPPIYSNDDAENSHLSERLFSSLPYAVIGSNDIVENYSGNQVRGRSYPWGVIEVDNDNHSDFNLLKNLLIKQFMEELKERTSKILYENYRSSKLAKLGIKQDNSVFKEFDPISKQQEEKTLHEAKLAKLEIEMKTVFQQKVSEKEKKLQKSETELFARHKEMKEKLTKQLKALEDKKKQLELSINSASPNVNHSPVPTKKKGFLR
chain 4: MDPLSSVQPASYVGFDTITNQIEHRLLKKGFQFNIMVVGQSGLGKSTLINTLFASHLIDSATGDDISALPVTKTTEMKISTHTLVEDRVRLNINVIDTPGFGDFIDNSKAWEPIVKYIKEQHSQYLRKELTAQRERFITDTRVHAILYFLQPNGKELSRLDVEALKRLTEIANVIPVIGKSDTLTLDERTEFRELIQNEFEKYNFKIYPYDSEELTDEELELNRSVRSIIPFAVVGSENEIEINGETFRGRKTRWSAINVEDINQCDFVYLREFLIRTHLQDLIETTSYIHYEGFRARQLIALKENANSRSSAHMSSNAIQR
notes: septin Cdc11, yeast; septin Cdc12, yeast; septin Cdc3, yeast; septin Cdc10, yeast; also called Cdc11-capped septin octamers; recombinant septin octamers; source: E. coli BL21 (DE3) Rosetta, co-expressed from pFM453 and pFM455, purified (amylose, thrombin cleavage of MBP, Ni-NTA); not shown: MBP, N-terminal, cleaved; His6, N-terminal, kept; copies: 2 + 2 + 2 + 2
binding result [2]: binds
